The Human Domainome abundance scans (Beltran et al. 2025)
± gives the uncertainty stated by the source.

B1: RNA-binding E3 ubiquitin-protein ligase MEX3C, residues 325 to 391; numbered along this chain, Q5U5Q3 (parent)
chain: GQTTVQVRVPYRVVGLVVGPKGATIKRIQQQTHTYIVTPSRDKEPVFEVTGMPENVDRAREEIEMHI

Variants of: B1
Test: abundance fitness (aPCA) (normalised: wild type 0, dead -1); higher = more abundant; growth selection in yeast, the domain comes from the species named
Details: Homo sapiens

Variant	abundance fitness
GQTTVQVRAPYRVVGLVVGPKGATIKRIQQQTHTYIVTPSRDKEPVFEVTGMPENVDRAREEIEMHI	-0.657 ± 0.087
GQTTVQVRGPYRVVGLVVGPKGATIKRIQQQTHTYIVTPSRDKEPVFEVTGMPENVDRAREEIEMHI	-0.551 ± 0.055
GQTTVQVRNPYRVVGLVVGPKGATIKRIQQQTHTYIVTPSRDKEPVFEVTGMPENVDRAREEIEMHI	-0.954 ± 0.5
GQTTVQVRQPYRVVGLVVGPKGATIKRIQQQTHTYIVTPSRDKEPVFEVTGMPENVDRAREEIEMHI	-0.993 ± 0.28
GQTTVQVRIPYRVVGLVVGPKGATIKRIQQQTHTYIVTPSRDKEPVFEVTGMPENVDRAREEIEMHI	-0.54 ± 0.092
GQTTVQVRHPYRVVGLVVGPKGATIKRIQQQTHTYIVTPSRDKEPVFEVTGMPENVDRAREEIEMHI	-0.928 ± 0.41
GQTTVQVREPYRVVGLVVGPKGATIKRIQQQTHTYIVTPSRDKEPVFEVTGMPENVDRAREEIEMHI	-0.733 ± 0.12
GQTTVQVRLPYRVVGLVVGPKGATIKRIQQQTHTYIVTPSRDKEPVFEVTGMPENVDRAREEIEMHI	-0.873 ± 0.12
GQTTVQVRMPYRVVGLVVGPKGATIKRIQQQTHTYIVTPSRDKEPVFEVTGMPENVDRAREEIEMHI	-0.641 ± 0.11
GQTTVVVRVPYRVVGLVVGPKGATIKRIQQQTHTYIVTPSRDKEPVFEVTGMPENVDRAREEIEMHI	0.071 ± 0.14
GQTTVGVRVPYRVVGLVVGPKGATIKRIQQQTHTYIVTPSRDKEPVFEVTGMPENVDRAREEIEMHI	-0.16 ± 0.055
GQTTVMVRVPYRVVGLVVGPKGATIKRIQQQTHTYIVTPSRDKEPVFEVTGMPENVDRAREEIEMHI	-0.151 ± 0.16
GQTTVSVRVPYRVVGLVVGPKGATIKRIQQQTHTYIVTPSRDKEPVFEVTGMPENVDRAREEIEMHI	-0.056 ± 0.074
GQTTVRVRVPYRVVGLVVGPKGATIKRIQQQTHTYIVTPSRDKEPVFEVTGMPENVDRAREEIEMHI	0.159 ± 0.058
GQTTVYVRVPYRVVGLVVGPKGATIKRIQQQTHTYIVTPSRDKEPVFEVTGMPENVDRAREEIEMHI	0.269 ± 0.22
GQTTVTVRVPYRVVGLVVGPKGATIKRIQQQTHTYIVTPSRDKEPVFEVTGMPENVDRAREEIEMHI	-0.247 ± 0.16
GQTTVPVRVPYRVVGLVVGPKGATIKRIQQQTHTYIVTPSRDKEPVFEVTGMPENVDRAREEIEMHI	-0.3 ± 0.15
GQTTVHVRVPYRVVGLVVGPKGATIKRIQQQTHTYIVTPSRDKEPVFEVTGMPENVDRAREEIEMHI	-0.099 ± 0.28
GQTTVWVRVPYRVVGLVVGPKGATIKRIQQQTHTYIVTPSRDKEPVFEVTGMPENVDRAREEIEMHI	-0.513 ± 0.2
GQTTVLVRVPYRVVGLVVGPKGATIKRIQQQTHTYIVTPSRDKEPVFEVTGMPENVDRAREEIEMHI	-0.022 ± 0.097

Variant	abundance fitness
GQTTVQVRVPARVVGLVVGPKGATIKRIQQQTHTYIVTPSRDKEPVFEVTGMPENVDRAREEIEMHI	0.171 ± 0.051
GQTTVQVMVPYRVVGLVVGPKGATIKRIQQQTHTYIVTPSRDKEPVFEVTGMPENVDRAREEIEMHI	-0.555 ± 0.1
GQTTVQVVVPYRVVGLVVGPKGATIKRIQQQTHTYIVTPSRDKEPVFEVTGMPENVDRAREEIEMHI	-0.66 ± 0.066
GQTTVQVEVPYRVVGLVVGPKGATIKRIQQQTHTYIVTPSRDKEPVFEVTGMPENVDRAREEIEMHI	-0.52 ± 0.086
GQTTVQVIVPYRVVGLVVGPKGATIKRIQQQTHTYIVTPSRDKEPVFEVTGMPENVDRAREEIEMHI	-0.375 ± 0.16
GQTTVQVDVPYRVVGLVVGPKGATIKRIQQQTHTYIVTPSRDKEPVFEVTGMPENVDRAREEIEMHI	-0.666 ± 0.14
GQTTVQVGVPYRVVGLVVGPKGATIKRIQQQTHTYIVTPSRDKEPVFEVTGMPENVDRAREEIEMHI	-0.763 ± 0.077
GQTTVQVNVPYRVVGLVVGPKGATIKRIQQQTHTYIVTPSRDKEPVFEVTGMPENVDRAREEIEMHI	-0.971 ± 0.21
GQTTVQVPVPYRVVGLVVGPKGATIKRIQQQTHTYIVTPSRDKEPVFEVTGMPENVDRAREEIEMHI	-0.18 ± 0.085
GQTTVQVKVPYRVVGLVVGPKGATIKRIQQQTHTYIVTPSRDKEPVFEVTGMPENVDRAREEIEMHI	0.038 ± 0.074
GQTTVQVLVPYRVVGLVVGPKGATIKRIQQQTHTYIVTPSRDKEPVFEVTGMPENVDRAREEIEMHI	-0.601 ± 0.08
GQTTVQVAVPYRVVGLVVGPKGATIKRIQQQTHTYIVTPSRDKEPVFEVTGMPENVDRAREEIEMHI	-0.608 ± 0.072
GQTTVQVQVPYRVVGLVVGPKGATIKRIQQQTHTYIVTPSRDKEPVFEVTGMPENVDRAREEIEMHI	-0.683 ± 0.14
GQTTVQVTVPYRVVGLVVGPKGATIKRIQQQTHTYIVTPSRDKEPVFEVTGMPENVDRAREEIEMHI	-0.209 ± 0.099
GQTTVQVFVPYRVVGLVVGPKGATIKRIQQQTHTYIVTPSRDKEPVFEVTGMPENVDRAREEIEMHI	-0.666 ± 0.12
GQTTVQVWVPYRVVGLVVGPKGATIKRIQQQTHTYIVTPSRDKEPVFEVTGMPENVDRAREEIEMHI	-0.382 ± 0.088
GQTTVQVYVPYRVVGLVVGPKGATIKRIQQQTHTYIVTPSRDKEPVFEVTGMPENVDRAREEIEMHI	-0.175 ± 0.14
GQTTVQVHVPYRVVGLVVGPKGATIKRIQQQTHTYIVTPSRDKEPVFEVTGMPENVDRAREEIEMHI	-0.345 ± 0.13
GQTTVQVSVPYRVVGLVVGPKGATIKRIQQQTHTYIVTPSRDKEPVFEVTGMPENVDRAREEIEMHI	-0.377 ± 0.063
GQTTVQVCVPYRVVGLVVGPKGATIKRIQQQTHTYIVTPSRDKEPVFEVTGMPENVDRAREEIEMHI	-0.675 ± 0.14
